Source: the RNAGym collection of RNA variant scans (doi:10.1093/nar/gkz1192)

B1: CPEB3 Ribozyme (parent)
chain: UAACAGGGGGCCACAGCAGAAGCGUUCACGUCGCAGCCCCUGUCAGAUUCUGGUGAAUCUGCGAAUUCUGCUGUAUAUCUC

Variants of: B1
Experiment: self-cleavage, relative activity (ratio to wild type); higher = more cleavage; in vitro, sequencing
Summary of the method: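 Relative activity compares each variant's cleaved/total read fraction with that of the unmutated ribozyme. To get these fractions, barcoded CPEB3 ribozyme libraries from rounds of error-prone PCR were transcribed with T7 RNA polymerase for 5 hours at 37°C and then given 15 min of DNase I treatment before EDTA was added. The RNAs were reverse transcribed with template switching and sequenced on Illumina, and DNA sequencing linked barcodes to variants. A minimum of 5 reads applied, and three batches were averaged.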

Question: With UAACAGGGGGCCACAGCAGAAGCGUUCACGUCGCAGCCCCUGUCAGAUUCCGGUGAAUCUGCGAAUUCUGCUGUAUUUCUC [U51C A77U] as the variant, how does the self-cleavage read?
Answer: 0.95

Question: With UAACAGGGGGCCACAGCAGAAGCGUUCACGUCGCAGCCCCUGUCAGAUUCCGGUGAAUCUGCGAAUUGUGCUGUAUAUCUC [U51C C68G] as the variant, how does the self-cleavage read?
Answer: 0.69

Question: For UAACAGGGGGCCACAGCAGAAGCGUUCACGUCGCAGCCCCUGUCAGAUUCCGGUGAAUCUGCGAAUUUUGCUGUAUAUCUC [U51C C68U], which self-cleavage is on record?
Answer: 1.14

Question: For UAACAGGGGGCCACAGCAGAAGCGUUCACGUCGCAGCCCCUGUCAGAUUCAGGUGAAUCUGCGAAUUCUGCUGUAAAUCUC [U51A U76A], which self-cleavage is on record?
Answer: 1.09

Question: With UAACAGGGGGCCACAGCAGAAGCGUUCACGUCGCAGCCCCUGUCAGAUUCAGGUGAAUCUGCGAAUUCUGCUGUAGAUCUC [U51A U76G] as the variant, how does the self-cleavage read?
Answer: 1.09

Question: With UAACAGGGGGCCACAGCAGAAGCGUUCACGUCGCAGCCCCUGUCAGAUUCAGGUGAAUCUGCGAAUUCUGCUGUACAUCUC [U51A U76C] as the variant, how does the self-cleavage read?
Answer: 1.11

Question: With UAACAGGGGGCCACAGCAGAAGCGUUCACGUCGCAGCCCCUGUCAGAUUCCGGUGAAUCUGCUAAUUCUGCUGUAUAUCUC [U51C G63U] as the variant, how does the self-cleavage read?
Answer: 1.07

Question: With UAACAGGGGGCCACAGCAGAAGCGUUCACGUCGCAGCCCCUGUCAGAUUCCGGUGAAUCUGCAAAUUCUGCUGUAUAUCUC [U51C G63A] as the variant, how does the self-cleavage read?
Answer: 0.61

Question: For UAACAGGGGGCCACAGCAGAAGCGUUCACGUCGCAGCCCCUGUCAGAUUCAGGUGAAUCUGCGAAUUCUGCUGUAUAACUC [U51A U78A], which self-cleavage is on record?
Answer: 1

Question: With UAACAGGGGGCCACAGCAGAAGCGUUCACGUCGCAGCCCCUGUCAGAUUCAGGUGAAUCUGCGAAUUCUGCUGUAUACCUC [U51A U78C] as the variant, how does the self-cleavage read?
Answer: 0.83

Question: Which self-cleavage does the source give for UAACAGGGGGCCACAGCAGAAGCGUUCACGUCGCAGCCCCUGUCAGAUUCAGGUGAAUCUGCGAAUUCUGCUGUAUAGCUC [U51A U78G] here?
Answer: 1.04

Question: Which self-cleavage does the source give for UAACAGGGGGCCACAGCAGAAGCGUUCACGUCGCAGCCCCUGUCAGAUUCCGGUGAAUCUGCGAAUUCUGCUGUAUAUCUC [U51C] here?
Answer: 1.04

Question: With UAACAGGGGGCCACAGCAGAAGCGUUCACGUCGCAGCCCCUGUCAGAUUCAGGUGAAUCUGCGAAUUCUGCUGCAUAUCUC [U51A U74C] as the variant, how does the self-cleavage read?
Answer: 1.21

Question: For UAACAGGGGGCCACAGCAGAAGCGUUCACGUCGCAGCCCCUGUCAGAUUCAGGUGAAUCUGCGAAUUCUGCUGAAUAUCUC [U51A U74A], which self-cleavage is on record?
Answer: 1.29

Question: With UAACAGGGGGCCACAGCAGAAGCGUUCACGUCGCAGCCCCUGUCAGAUUCCGGUGAAUCUGCGAAUUCUGCUGUAUAUCUU [U51C C81U] as the variant, how does the self-cleavage read?
Answer: 1.15

Question: With UAACAGGGGGCCACAGCAGAAGCGUUCACGUCGCAGCCCCUGUCAGAUUCCGGUGAAUCUGCGAAUUCUGCUGUAUAUCUA [U51C C81A] as the variant, how does the self-cleavage read?
Answer: 1.18

Question: For UAACAGGGGGCCACAGCAGAAGCGUUCACGUCGCAGCCCCUGUCAGAUUCCGGUUAAUCUGCGAAUUCUGCUGUAUAUCUC [U51C G55U], which self-cleavage is on record?
Answer: 0.73

Question: For UAACAGGGGGCCACAGCAGAAGCGUUCACGUCGCAGCCCCUGUCAGAUUCCGGUAAAUCUGCGAAUUCUGCUGUAUAUCUC [U51C G55A], which self-cleavage is on record?
Answer: 0.75

Question: Which self-cleavage does the source give for UAACAGGGGGCCACAGCAGAAGCGUUCACGUCGCAGCCCCUGUCAGAUUCCGAUGAAUCUGCGAAUUCUGCUGUAUAUCUC [U51C G53A] here?
Answer: 1.18

Question: Which self-cleavage does the source give for UAACAGGGGGCCACAGCAGAAGCGUUCACGUCGCAGCCCCUGUCAGAUUCCGUUGAAUCUGCGAAUUCUGCUGUAUAUCUC [U51C G53U] here?
Answer: 1.2

Question: For UAACAGGGGGCCACAGCAGAAGCGUUCACGUCGCAGCCCCUGUCAGAUUCCGCUGAAUCUGCGAAUUCUGCUGUAUAUCUC [U51C G53C], which self-cleavage is on record?
Answer: 1.01

Question: With UAACAGGGGGCCACAGCAGAAGCGUUCACGUCGCAGCCCCUGUCAGAUUCCGGUGAAUAUGCGAAUUCUGCUGUAUAUCUC [U51C C59A] as the variant, how does the self-cleavage read?
Answer: 0.29

Question: With UAACAGGGGGCCACAGCAGAAGCGUUCACGUCGCAGCCCCUGUCAGAUUCCGGUGAAUUUGCGAAUUCUGCUGUAUAUCUC [U51C C59U] as the variant, how does the self-cleavage read?
Answer: 0.68

Question: Which self-cleavage does the source give for UAACAGGGGGCCACAGCAGAAGCGUUCACGUCGCAGCCCCUGUCAGAUUCCGGUGAUUCUGCGAAUUCUGCUGUAUAUCUC [U51C A57U] here?
Answer: 0.44

Question: With UAACAGGGGGCCACAGCAGAAGCGUUCACGUCGCAGCCCCUGUCAGAUUCCGGUGAGUCUGCGAAUUCUGCUGUAUAUCUC [U51C A57G] as the variant, how does the self-cleavage read?
Answer: 0.91

Question: Which self-cleavage does the source give for UAACAGGGGGCCACAGCAGAAGCGUUCACGUCGCAGCCCCUGUCAGAUUCCGGUGACUCUGCGAAUUCUGCUGUAUAUCUC [U51C A57C] here?
Answer: 0.44

Question: For UAACAGGGGGCCACAGCAGAAGCGUUCACGUCGCAGCCCCUGUCAGAUUCCGGUGAAUCUGCGAAUUCUGCUGUUUAUCUC [U51C A75U], which self-cleavage is on record?
Answer: 0.98

Question: For UAACAGGGGGCCACAGCAGAAGCGUUCACGUCGCAGCCCCUGUCAGAUUCCGGUGAAUCUGCGAAUUCUGCUGUGUAUCUC [U51C A75G], which self-cleavage is on record?
Answer: 1.01

Question: Which self-cleavage does the source give for UAACAGGGGGCCACAGCAGAAGCGUUCACGUCGCAGCCCCUGUCAGAUUCCGGUGAAUCUGCGAAUUCUGCUGUCUAUCUC [U51C A75C] here?
Answer: 1.21

Question: For UAACAGGGGGCCACAGCAGAAGCGUUCACGUCGCAGCCCCUGUCAGAUUCAGGUGAAUCUGCGAAUUCUGCUGUAUAUCCC [U51A U80C], which self-cleavage is on record?
Answer: 1

Question: With UAACAGGGGGCCACAGCAGAAGCGUUCACGUCGCAGCCCCUGUCAGAUUCAGGUGAAUCUGCGAAUUCUGCUGUAUAUCGC [U51A U80G] as the variant, how does the self-cleavage read?
Answer: 1.18

Question: With UAACAGGGGGCCACAGCAGAAGCGUUCACGUCGCAGCCCCUGUCAGAUUCAGGUGAAUCUGCGAAUUCUGCUGUAUAUCAC [U51A U80A] as the variant, how does the self-cleavage read?
Answer: 1.07

Question: With UAACAGGGGGCCACAGCAGAAGCGUUCACGUCGCAGCCCCUGUCAGAUUCCGGUGAACCUGCGAAUUCUGCUGUAUAUCUC [U51C U58C] as the variant, how does the self-cleavage read?
Answer: 0.37

Question: Which self-cleavage does the source give for UAACAGGGGGCCACAGCAGAAGCGUUCACGUCGCAGCCCCUGUCAGAUUCCGGUGAAACUGCGAAUUCUGCUGUAUAUCUC [U51C U58A] here?
Answer: 0.25
